This is an account of results in patent publication US20060024786A1, “WASP and N-WASP constructs and methods of expressing such constructs” (Cytokinetics, Inc., priority 2004, published 2006).

“Also recorded” adds a separate entry of the source.

Data set [1] deals with T1, full length human WASP (Homo sapiens, UniProt P42768).
T1 construct: ProtA (part of TAP tag, behind the tev site) (C, cleaved yes); made in house; host or cells: human 293 cells (Freestyle 293 expression system)
Nature of the data set: Pyrene-actin polymerization assay: activation of full length WASP by upstream regulators. The settings on record: total concentration of Arp2/3 complex in the assay 4.2 nM. The data set is classed as biochemical.

The next data set addresses T2, full length human N-WASP (Homo sapiens, UniProt O00401).
T2 construct: ProtA (part of TAP tag, behind the tev site) (C, cleaved yes); made in house; host or cells: human 293 cells; cDNA amplified from HeLa total RNA
The data set can be described thus: Pyrene-actin polymerization assay: activation of full length N-WASP by upstream regulators. The class given is biochemical. Conditions: for activation of FL N-WASP: Arp2/3 complex 4.0 nM, actin 3.5 μM; for Barbed ends: total concentration of Arp2/3 complex in the assay 4.2 nM. On the procedure: (§1) Samples containing candidate agents (individually or as mixtures) are placed into wells on a multi-well plate. Mix 1 is added to each of the wells and mixed with the candidate agent. A sample of Mix 2 is then introduced into each well and the resulting mixture thoroughly mixed. Typically, Mix 1 and Mix 2 are mixed in 1:1 ratio (e.g., 50 μl each of Mix 1 and Mix 2).
(§2) Actin polymerization is measured as a function of time by exciting pyrene at 365 nm and by detecting an increase in fluorescence emission at 407 nm. The change in fluorescence over time is utilized to determine a fluorescence parameter (e.g., maximal velocity, time to half maximal fluorescence intensity or area under the curve of a plot of fluorescence versus time).
Full length N-WASP was prepared as described in Example 2. This protein was then used as a substitute GST-105 WASP in methods that were otherwise identical to the methods described in Example 7.
(§3) Full length human WASP and N-WASP were TAP-tagged (Rigaut, et al. (1999) Nat. Biotechnology 17:1030, which is incorporated herein by reference in its entirety for all purposes) at the C-terminus (see, also Examples 1 and 2). The recombinant WASP and N-WASP were expressed in human 293 cells and then purified using a TAP-tag protocol as described in Example 5.
Arp2/3 and actin concentrations were as described for the third experiment.
Another set of experiments similar to the fifth set were conducted using FL N-WASP.

Data set [2] addresses T1, full length human WASP. The data set can be described thus: Pyrene-actin polymerization assay: activation of full length WASP by upstream regulators. The class given is biochemical. Conditions: for activation of FL WASP: Arp2/3 complex 4.0 nM, actin 3.5 μM. On the procedure:
as §1, §2
Full length WASP was prepared as described in Example 1. This protein was then used as a substitute GST-105WASP in methods that were otherwise identical to the methods described in Example 7.
as §3
The Arp2/3 complex in these experiments was 4.0 nM and the actin concentration 3.5 μM.
The effect of PIP2on the ability of upstream regulators to regulate FL WASP was evaluated in a fifth set of experiments. The results are depicted in graphical format in FIG. 9.

The target in a further data set is T3, Arp2/3 complex.
T3 construct: prepared from an Arp2/3 source such as human platelets; from tissue; host or cells: cell extract, e.g. human platelets
Nature of the data set: Arp2/3-mediated actin polymerization stimulated by WASP/N-WASP proteins. The class given is biochemical, human. The method, then:
as §1, §2
In a second set of experiments, the ability of various truncated forms of WASP were compared to the activity of the full-length protein. The polymerization assays were conducted in the presence of 500 nM Cdc42, 2.5 nm purified Arp2/3 complex and 3.5 μM actin. FL-WASP, 105 WASP and the VCA (see Example 7) domain were tested. The results of these trials were plotted to obtain EC50 values. The results are provided in FIG. 6 and in the chart below.

Data set [3] in a line: Solubility of purified full-length protein. The settings on record: expressed in 293 cells, TAP-tag purification. The class given is physicochemical.
Setting [4] is: 500 nM Cdc42, 2.5 nm Arp2/3 complex, 3.5 μM actin, from EC50 values.

T2 sequence (O00401 with tags, fused parts or gaps Y76H/A201G/F223S/S242L/D248E/S252L/N296S/A333E): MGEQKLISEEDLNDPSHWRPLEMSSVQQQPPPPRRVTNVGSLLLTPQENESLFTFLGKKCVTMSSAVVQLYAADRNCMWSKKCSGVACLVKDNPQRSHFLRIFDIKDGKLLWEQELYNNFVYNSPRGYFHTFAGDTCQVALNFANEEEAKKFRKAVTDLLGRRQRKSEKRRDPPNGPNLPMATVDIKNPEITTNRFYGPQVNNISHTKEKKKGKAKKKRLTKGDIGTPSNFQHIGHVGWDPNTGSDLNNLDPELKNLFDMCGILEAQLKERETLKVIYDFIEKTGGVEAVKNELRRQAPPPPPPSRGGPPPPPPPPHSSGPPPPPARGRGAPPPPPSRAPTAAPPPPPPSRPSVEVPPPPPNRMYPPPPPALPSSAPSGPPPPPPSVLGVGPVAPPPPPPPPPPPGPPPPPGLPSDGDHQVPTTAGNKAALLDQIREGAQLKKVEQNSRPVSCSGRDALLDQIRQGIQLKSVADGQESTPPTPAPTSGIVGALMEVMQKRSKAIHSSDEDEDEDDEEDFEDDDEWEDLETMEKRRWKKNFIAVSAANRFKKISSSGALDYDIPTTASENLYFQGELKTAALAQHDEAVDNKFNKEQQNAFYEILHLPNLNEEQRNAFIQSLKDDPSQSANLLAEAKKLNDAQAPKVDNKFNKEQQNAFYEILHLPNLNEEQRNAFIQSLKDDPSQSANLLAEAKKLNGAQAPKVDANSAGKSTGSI
T1 sequence (P42768 whole entry, added parts left off): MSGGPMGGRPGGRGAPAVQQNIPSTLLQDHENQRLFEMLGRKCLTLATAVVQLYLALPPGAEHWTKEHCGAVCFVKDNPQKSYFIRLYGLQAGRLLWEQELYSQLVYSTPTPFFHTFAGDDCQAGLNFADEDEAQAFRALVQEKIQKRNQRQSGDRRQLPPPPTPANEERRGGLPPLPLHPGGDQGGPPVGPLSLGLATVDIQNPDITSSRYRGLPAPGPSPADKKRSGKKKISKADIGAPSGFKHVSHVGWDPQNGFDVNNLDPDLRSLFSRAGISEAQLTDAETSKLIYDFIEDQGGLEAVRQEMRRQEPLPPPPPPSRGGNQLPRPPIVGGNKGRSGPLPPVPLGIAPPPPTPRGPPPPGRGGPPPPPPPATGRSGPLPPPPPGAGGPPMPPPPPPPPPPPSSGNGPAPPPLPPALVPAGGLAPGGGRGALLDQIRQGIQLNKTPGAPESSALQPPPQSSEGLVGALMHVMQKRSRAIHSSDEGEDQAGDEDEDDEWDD

Regarding “Nck2: upstream regulator; GST-tagged NCK2, SEQ ID NO:40”, the “Barbed ends” value with full length human WASP [1] is reported as 2.6 nM; in the data set with full length human N-WASP (N-WASP), 3.5 nM. Further, the “activation of FL N-WASP” value with full length human N-WASP (FIG. 8) is recorded as “only activators tested that can stimulate production of maximal concentration of barbed ends”. For the same substance, the “dose dependence of barbed end concentration / effect at higher concentrations” value was “bell shaped dose dependence; also recorded: inhibited” in the data set with full length human N-WASP (FL N-WASP, FIG. 8) and “bell shaped dependence; also recorded: inhibited” with full length human WASP [2] (FL WASP, FIG. 7). The “Barbed ends % of max.” value with full length human N-WASP (N-WASP, after subtracting baseline (without activators)) worked out at 78%; with full length human WASP [2] (WASP, after subtracting baseline (WASP without activators)) it was 50%. In addition, the “comparison as N-WASP activator” value with full length human N-WASP (Rac1 versus Cdc42 in the absence of PIP2 vesicles, Nck2 on N-WASP versus WASP, FIG. 8) is given as “significantly better activator of N-WASP than WASP”.
Consider “Cdc42: Rho-family GTPase, upstream regulator; GST-tagged Cdc42 GTP with G12 mutated to V, SEQ ID NO:26”, for which the “Barbed ends” value with full length human WASP [1] was 3.8 nM; in the data set with full length human N-WASP (N-WASP) it was 1.3 nM. For the same substance, the “acceleration of actin polymerization by activator” value is recorded as 13 fold in the data set with full length human N-WASP (N-WASP plus activator versus N-WASP alone, FIG. 5) and 13 fold with full length human WASP [2] (FL-WASP plus activator versus FL-WASP alone, FIG. 5). The “activation of FL WASP” value with full length human WASP [2] (FIG. 7) was “can fully activate FL WASP; also recorded: more effective on WASP-stimulated actin nucleation by Arp2/3 complex than on N-WASP-stimulated actin nucleation”.
“FL-WASP: full-length Wiskott-Aldrich syndrome protein, SEQ ID NO:2; expressed TAP-tagged in human 293 cells”: in the data set with Arp2/3 complex (setting [4]), the “activity relative to 105 WASP” value was “approximately 20 times” and the “potency relative to the VCA/WA domain” value is “more than 70 times”. Further, in the data set with Arp2/3 complex (without upstream regulators, FIG. 5), the “stimulation of actin polymerization by the protein by itself” value is “only weakly stimulate actin polymerization”. Besides, in data set [3], the “solubility of purified protein” value is “completely soluble”.
Take “RhoA: GTPase; GST-tagged RhoA GTP, SEQ ID NO:30”: the “activation of FL N-WASP” value with full length human N-WASP (FIG. 8) is recorded as “could not activate”. In addition, the “activation of FL WASP” value with full length human WASP [2] (FIG. 7) was “could not activate”.
“RhoC: GTPase; GST-tagged RhoC GTP with G14 mutated to V, SEQ ID NO:28”: the “activation of FL N-WASP” value with full length human N-WASP (FIG. 8) is reported as “could not activate”. The “activation of FL WASP” value with full length human WASP [2] (FIG. 7) was “could not activate”.
As for “phosphatidylinositol-4,5-bisphosphate [PIP2, reference compound]”, at full length human WASP [2] (in the absence of small GTPases or Nck, FIG. 9), the “effect of PIP2 on FL WASP” value is on record as “minimal, if any, effect”.
